According to publication PMC8133496 (PLoS Biology, 2021):

B1: PR961 single-chain variable fragment (scFv, V domains shown)
VH: QVQLVQSGAEVKKPGASVKLSCKASGYSFTSYWVNWVRQAPGQGLEWIGMIHPSDSETRLNQKFKDRVTITVDKSTSTAYMELSSLRSEDTAVYYCARADGYEWYFDVWGRGTLVTVSS
VL: DIVLTQSPASLAVSPGQRATITCRASESVDSYGNSFMHWYQQKPGQPPKLLIYRASNLESGIPARFSGSGSGTDFTLTINPVEANDVANYYCQQSNEDPWTFGQGTKVEIK
notes: also called PR961 scFv
B2: PR953 (antibody, V domains shown)
VH: EVQLQQSGPELVKPGASVKISCKTSGYTFTEYTMHWVKQSHGKSLEWIGGINPNNGDNTYNQKLKGKATLTVHKSSSTAYMELRSLTSEDSAVYYCARDGYPYYYALDYWGQGTSVTVSS
VL: DIVMTQSQKFMSTSVGDRVSVTCKASQNVGTNVAWYQQKPGQSPKPLIYSASSRYSGVPDRFTGSGSGTDFTLTISNVQSEDLAEYFCQQYNNYPWTFGGGTKLEIK
notes: source: HEK 293F or ExpiCHO, transfected, purified (Protein A)
B3: PR1077 (antibody, V domains shown)
VH: QVQLVESGGGVVQPGRSLRLSCAASGFTFSYYGMHWVRQAPGKGLEWVAVIWYDGSNRFYADSVKGRFTISRDNSKSTLYLQMNSLRAEDTAVYYCATDPPGLRFRFDYWGQGTLVTVSS
VL: not shown
notes: as for B2

Legend:
Settings in all cases: both partners purified
[1] = target: SARS-CoV-2 spike receptor-binding domain (residues 333 to 530), carboxyl-terminal 8xHis tag (Severe acute respiratory syndrome …, UniProt P0DTC2); experiment: crystal structure
[2] = target: recombinant SARS-CoV-2 S1 RBD protein (Severe acute respiratory syndrome …, UniProt P0DTC2); experiment: BLI
[3] = target: recombinant SARS-CoV-2 S1 protein (SARS-CoV-2, wild type (reference), UniProt P0DTC2); experiment: BLI

Binder	binding result [1]	Kd [2] [nM]	Kd [3] [nM]
B1	binds		
B2		< 0.001	
B3		2.33	0.543
